{
  "source": "paper PMC5341616",
  "about": "(Biochemistry and Biophysics Reports, 2017)",
  "key": {"[1]": {"molecular_target": "PLIC-2 UBL domain UBLN2 1-107 (human, UniProt Q9UHD9 1-107)", "sequence (Q9UHD9 1-107)": "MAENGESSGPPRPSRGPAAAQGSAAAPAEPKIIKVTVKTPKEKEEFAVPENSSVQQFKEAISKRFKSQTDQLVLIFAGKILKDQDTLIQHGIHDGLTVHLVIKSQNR", "experiment": "NMR titration"}, "Ubiquitin": {"molecular_target": "Ubiquitin (UniProt P0CG48 1-76)", "experiment": "NMR titration"}},
  "data": [
    {"binder": "PEVRFQQQLEQLNAMGFLNREANLQALIATGGDINAAIERLLGSQPS (domain or fragment, human, UniProt Q9UHD9 578-624, looked up)", "note": "[PLIC-2 UBA domain UBLN2 578-624]", "values": [
      {"measurement": "Kd", "setting": "[1]", "result": "175 ± 25", "unit": "µM"},
      {"measurement": "Kd", "setting": "Ubiquitin", "result": "8.1 ± 1.5", "unit": "µM"}
    ]}
  ]
}
